# Test results published in US20100293752A1.
# Legend:
# [1] = biological target: CFP from CFP-empty plasmid (pECFP); assay: FRET by acceptor photobleaching, negative control: cotransfection of CFP- and YFP-empty plasmids
# [2] = biological target: CFP-tagged CD44 (human full length CD44s cDNA fused in frame into pECFP, expressed in MDA-MB231 cells) (human) (UniProt P16070); assay: FRET by acceptor photobleaching in MDA-MB231 cells, in the presence of blocking antibody to αvβ3 integrin
# [3] = biological target: CFP-tagged CD44 (human full length CD44s cDNA fused in frame into pECFP, expressed in MDA-MB231 cells) (human) (UniProt P16070); assay: FRET by acceptor photobleaching in MDA-MB231 cells, in the presence of the mutated OPN-R3 RNA aptamer (control)
# [4] = biological target: CFP-tagged CD44 (human full length CD44s cDNA fused in frame into pECFP, expressed in MDA-MB231 cells) (human) (UniProt P16070); assay: FRET by acceptor photobleaching, confocal microscopy, MDA-MB231 cells coexpressing CFP-CD44 and YFP-OPN
FRET efficiency [1],FRET efficiency [2],FRET efficiency [3],FRET efficiency [4],Substance
0.23%,–,–,–,YFP from YFP-empty plasmid (pEYFP)
–,19.6%,23.1%,24.2%,"YFP-tagged OPN (human OPN-a cDNA fused in frame into pEYFP, expressed in MDA-MB231 cells) (from UniProt P10451 1-314) (ligand)"
